Test results reported in US10058586B2, “Use of human small leucine zipper protein in adipocyte differentiation procedure” (Korea University Research and Business Foundation, priority 2013, dated 2018).

Test system: primary preadipocytes and mouse embryonic fibroblasts (MEFs)
Experiment: Adipocyte differentiation of primary preadipocytes and MEFs isolated from sLZIP TG mice
Format: cell-based
Conditions: cells isolated from sLZIP TG mice vs wild type mice
Source text: In order to generate human sLZIP transgenic (TG) mice, sLZIP genes were cloned into a pCMV-flag expression vector. The sLZIP TG mice were generated by Macrogen, Inc (Seoul, Korea). Transgenic founders were mated with wild type C57BL/6 mice to produce F1 heterozygotes. F1-F4 generations were genetically screened for transgenes at an age of 2 weeks old. The following two primers were used to amplify genomic DNA in order to identify wild type and TG mice: [NT] and 5'-[NT]3.' Adipocyte differentiation is a well-regulated procedure. PPARγ2 is a major regulator of adipogenesis, is highly expressed during adipocyte differentiation, and regulates expression of genes involved in adipogenesis. An effect of sLZIP on adipogenesis in vivo was examined. For this purpose, in order to produce human sLZIP transgenic mice, sLZIP genes were cloned in a pCMV-flag expression vector. The sLZIP TG mice were produced in Macrogen, Inc (Seoul, Korea) (FIG. 8A). Preadipocytes were isolated from epididymal adipose tissues of sLZIP TG mice. […] A promoter activity was measured according to luciferase analysis (FIG. 8B). […] Total RNA was extracted from the cells, and an mRNA expression level of mouse LZIPs was measured using RT-PCR analysis. […] Total RNA was isolated from the cells, and an mRNA expression level of mouse LZIPs was measured using RT-PCR (FIG. 9C) and real-time PCR (FIG. 9D).

B1: sLZIP: human small leucine-zipper protein, isoform of LZIP, 354 amino acids, no transmembrane domain; GenBank FJ263669, SEQ ID NO: 1 (protein, listed as Homo sapiens)
chain: MELELDAGDQDLLAFLLEESGDLGTAPDEAVRAPLDWALPLSEVPSDWEVDDLLCSLLSPPASLNILSSSNPCLVHHDHTYSLPRETVSMDLESESCRKEGTQMTPQHMEELAEQEIARLVLTDEEKSLLEKEGLILPETLPLTKTEEQILKRVRRKIRNKRSAQESRRKKKVYVGGLESRVLKYTAQNMELQNKVQLLEEQNLSLLDQLRKLQAMVIEISNKTSSSSMYSSDTRGSLPAEHGVLSRQLRALPSEDPYQLELPALQSEVPKDSTHQWLDGSDCVLQAPGNTSCLLHYMPQAPSAEPPLEWPFPDLFSEPLCRGPILPLQANLTRKGGWLPTGSPSVILQDRYSG
In the case of B1, the adipocyte differentiation is reported as “inhibited more than in wild type mice”.
